# Source: paper PMC11054337 (2024)
# Experiments:
# [1] = biological target: T1, xanthine phosphoribosyltransferase PTS1 peptide (Leishmania donovani); assay: fluorescence polarization competition
# [2] = biological target: T2, phosphofructokinase PTS1 peptide (Leishmania donovani); assay: fluorescence polarization competition
# [3] = biological target: T3, galactokinase PTS1 peptide (Leishmania donovani); assay: fluorescence polarization competition
# [4] = biological target: T1, xanthine phosphoribosyltransferase PTS1 …; assay: fluorescence polarization
# [5] = biological target: T2, phosphofructokinase PTS1 peptide; assay: fluorescence polarization
# [6] = biological target: T3, galactokinase PTS1 peptide; assay: fluorescence polarization
binder,measurement,setting,value
PEX5 303-625 (protein) RLQKVTNSTDYPFEPNNPYMFHDFPFDEGMEMLQLGNLAEAALAFEAVCHKDSSNEKAWQILGTTQAENEKDGLAIIALNNARKLNPRNLEVHAALSVSHTNERNADAAMDSLKAWLVNHPEYEQLASVSIPPNAELDVQETFFFADPSRMREARTLYEAAIEMNPSDSQLFTNLGVLHNVAHEFDEAAECFRKAVALHPDDPKMWNKLGATLANGGHPDQALEAYNRALDINPGYVRAMYNMAVAYSNMSQYNMAARQIVKAIASQQGGTKPSGEGSIMATRNMWDLLRMTLNLMDRDDLVQLTYNEQLEPFVKEFGLEGHV,IC50,[1],3610 nM
same,IC50,[2],> 60000 nM
same,IC50,[3],10600 nM
same,Kd,[4],78 nM
same,Kd,[5],102 nM
same,Kd,[6],382 nM
